Assay results as given in patent US20170333517.

Target: T1, N-acetyl-proline-glycine-proline
T1 chain: PGP

B1: recombinant human angiotensin converting enzyme (protein)
chain: LDPGLQPGNFSADEAGAQLFAQSYNSSAEQVLFQSVAASWAHDTNITAENARRQEEAALLSQEFAEAWGQKAKELYEPIWQNFTDPQLRRIIGAVRTLGSANLPLAKRQQYNALLSNMSRIYSTAKVCLPNKTATCWSLDPDLTNILASSRSYAMLLFAWEGWHNAAGIPLKPLYEDFTALSNEAYKQDGFTDTGAYWRSWYNSPTFEDDLEHLYQQLEPLYLNLHAFVRRALHRRYGDRYINLRGPIPAHLLGDMWAQSWENIYDMVVPFPDKPNLDVTSTMLQQGWNATHMFRVAEEFFTSLELSPMPPEFWEGSMLEKPADGREVVCHASAWDFYNRKDFRIKQCTRVTMDQLSTVHHEMGHIQYYLQYKDLPVSLRRGANPGFHEAIGDVLALSVSTPEHLHKIGLLDRVTNDTESDINYLLKMALEKIAFLPFGYLVDQWRWGVFSGRTPPSRYNFDWWYLRTKYQGICPPVTRNETHFDAGAKFHVPNVTPYIRYFVSFVLQFQFHEALCKEAGYEGPLHQCDIYRSTKAGAKLRKVLQAGSSRPWQEVLKDMVGLDALDAQPLLKYFQPVTQWLQEQNQQNGEVLGWPEYQWHPPLPDNYPEGIDLVTDEAEASKFVEEYDRTSQVVWNEYAEANWNYNTNITTETSKILLQKNMQIANHTLKYGTQARKFDVNQLQNTTIKRIIKKVQDLERAALPAQELEEYNKILLDMETTYSVATVCHPNGSCLQLEPDLTNVMATSRKYEDLLWAWEGWRDKAGRAILQFYPKYVELINQAARLNGYVDAGDSWRSMYETPSLEQDLERLFQELQPLYLNLHAYVRRALHRHYGAQHINLEGPIPAHLLGNMWAQTWSNIYDLVVPFPSAPSMDTTEAMLKQGWTPRRMFKEADDFFTSLGLLPVPPEFWNKSMLEKPTDGREVVCHASAWDFYNGKDFRIKQCTTVNLEDLVVAHHEMGHIQYFMQYKDLPVALREGANPGFHEAIGDVLALSVSTPKHLHSLNLLSSEGGSDEHDINFLMKMALDKIAFIPFSYLVDQWRWRVFDGSITKENYNQEWWSLRLKYQGLCPPVPRTQGDFDPGAKFHIPSSVPYIRYFVSFIIQFQFHEALCQAAGHTGPLHKCDIYQSKEAGQRLATAMKLGFSRPWPEAMQLITGQPNMSASAMLSYFKPLLDWLRTENELHGEKLGWPQYNWTPNSARSEGPLPDSGRVSFLGLDLDAQQARVGQWL
  degradation of Ac-PGP (residual Ac-PGP by ESI-LC-MS/MS after 24 h; 1 µg/ml enzyme, 100 µg/ml Ac-PGP): ACE degraded 70% of Ac-PGP

B2: recombinant human aminopeptidase N (protein)
chain: KAWNRYRLPNTLKPDSYRVTLRPYLTPNDRGLYVFKGSSTVRFTCKEATDVIIIHSKKLNYTLSQGHRVVLRGVGGSQPPDIDKTELVEPTEYLVVHLKGSLVKDSQYEMDSEFEGELADDLAGFYRSEYMEGNVRKVVATTQMQAADARKSFPCFDEPAMKAEFNITLIHPKDLTALSNMLPKGPSTPLPEDPNWNVTEFHTTPKMSTYLLAFIVSEFDYVEKQASNGVLIRIWARPSAIAAGHGDYALNVTGPILNFFAGHYDTPYPLPKSDQIGLPDFNAGAMENWGLVTYRENSLLFDPLSSSSSNKERVVTVIAHELAHQWFGNLVTIEWWNDLWLNEGFASYVEYLGADYAEPTWNLKDLMVLNDVYRVMAVDALASSHPLSTPASEINTPAQISELFDAISYSKGASVLRMLSSFLSEDVFKQGLASYLHTFAYQNTIYLNLWDHLQEAVNNRSIQLPTTVRDIMNRWTLQMGFPVITVDTSTGTLSQEHFLLDPDSNVTRPSEFNYVWIVPITSIRDGRQQQDYWLIDVRAQNDLFSTSGNEWVLLNLNVTGYYRVNYDEENWRKIQTQLQRDHSAIPVINRAQIINDAFNLASAHKVPVTLALNNTLFLIEERQYMPWEAALSSLSYFKLMFDRSEVYGPMKNYLKKQVTPLFIHFRNNTNNWREIPENLMDQYSEVNAISTACSNGVPECEEMVSGLFKQWMENPNNNPIHPNLRSTVYCNAIAQGGEEEWDFAWEQFRNATLVNEADKLRAALACSKELWILNRYLSYTLNPDLIRKQDATSTIISITNNVIGQGLVWDFVQSNWKKLFNDYGGGSFSFSNLIQAVTRRFSTEYELQQLEQFKKDNEETGFGSGTRALEQALEKTKANIKWVKENKEVVLQWFTENSK
  degradation of Ac-PGP (residual Ac-PGP by ESI-LC-MS/MS after 24 h; 1 µg/ml enzyme, 100 µg/ml Ac-PGP): APN had no activity
